Measurements taken from the domain aggregation screens of Martell et al. (2025).

Experiment: soluble fraction after stress (log2 fold change); higher = more stays soluble; pooled small domains, quantitative proteomics
Settings: stress: 75 degC
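Note: 20 min heating vs room temperature control held 20 min.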

Sequence	soluble fraction (log2)
HMGDPYAILGLLPGASMEDVRHAWRRQAAENHPDRMLQRGAPPEFVEIAREKTAAINAAYARIREELSI	-0.433
HMGDTIGEQKAKEIALEHAGLKSSDVTFIRAVLEYDDRNWEYDVEFYDADTYTEYDYEIDAHTGKILSFDH	0.351
HMGDTPVDFSEFIRWVDTGVVDRVELTGNEIVGTSSSGERFSTYAPPQYEGLGNKLIERDIVVVATAA	-0.0455
HMGDTVSGTMLNLKPGVRVVHQIFGPGRVEETTGASLAEFRVTVRFEQKGLKTLLLQYAALQVINSEN	-1.73
HMGDVKLNAIYNFLKEFSALNGFPPSVREIGAKFGIKSTSTVHYYLEKLKQSGVIQQEENKKRAVVIN	-1.32
HMGDWEDFWEKEARRRKLSLDYQVVRSLSRWSREYDWGEEDVEQFLSQFPEGETVKMEDVELYFE	-1.18
HMGDYDHYVVKVEDTLLNWLVTNVTTMSRNKLKDILAGQGIKVNGKITTKYDYPLTPGMKIAISKTKR	-1.41
HMGEAIPVPDIRHKSQADAERLLQDQGLAMMVTDTGYVKTLPANYILEQIPVAGEKVKSGHVVYVIINSG	-0.103
HMGEGIRIDSTAVVQVGEKMYAYLGGDGFSKEFWTNLPASGELAVTLKFEPIPMDAESLDFYEMPA	0.307
HMGEILYSGVLKGGDGPEATKLALEKFLGEANTQVAGRIGVQPETQVIWLSREAVDSAASTLSQHKGNMYV	-0.247
HMGELDFYEEMRDDYLTGKIWNVGEIVEAKGMIGEIVRKGTNYISFVTDDNKVHKAWLHEIKL	-0.641
HMGELRAPLPGVIVSIPVKEGDEVKAGQAILIIEAMKMESEISSPIDAKVAKIVVKERVLVQEGDILIILE	-1.33
HMGEMTDFETLRDMYLTGQIWNIDDLIEANGVEGRIVRRGTNYIAFNDRDGKVHKAWLHEVTINE	-0.434
HMGENTIFSGVLGEGRLDSALAHALPQFSRARIQGLIAEDAVLIAGKATNDAASKKFAGQSFELSVPAPRP	0.119
HMGEPQAWNELIGNLLRQWEARQTGWTPARKREALDRVLGAADPAALYTRLQGLLKSWTQAMTDADA	-1.73
HMGEQETILKGDVNRDGVVDVNDVTHLQIHISNDDKNPLIDVTNKAWFDAADMYGDGKLDILDATALQIYI	0.196
HMGERVDGVVKFFNGQKGFGFIQREDGGPDAFVHISAVERAGMAGLDEGQRVSFELELDRRGKQAAINLTP	0.108
HMGESYGPVRRGETLWSIAEKVKPAGVSTQKELAAIYAANPQAFIRGDINLLKAGAELRLPSPEAL	-0.0179
HMGESYQIKDGELLVDIAQRVKPAGMTLRQTINALVAANPRAFRNGNPDLMYRGATLTIPDGDTLRRLAH	-0.0841
HMGEVQALIPGLVSKLFVVEGESVKIGQKLIILEAMKMENEIASPINGTIKKIYIKSGDKIDKGSIIMEIT	-3.41
HMGEVVSAPMPGTILSIKVSQGQTVKRGQVLLILEAMKMENEIVAPRDGVVVQISTTQGASVETGAPLVVL	-1.1
HMGEVYPSDIVEKMKQANLHILEGTLYPLLTRLKNAGLLNYRWVESVTGPPRKYFVMTEEGKAAF	0.13
HMGEWHQMLRSWGETELKNGRQNILDEAVPAFERAMIETALAHTSGRKKDAALLLGWGRNTLTRKLQEHSI	-0.169
HMGEYGVLWYLLTKKEAVSAGELKEKLHVVPGRMTDILTALEKKGLIIRQKNKTDKRVVDVVLTKEGEKEA	-0.731
HMGFAEFWLAYPKKVGKGEAERKWKTLKPDAGAVLSAVKRQSASEQWRKDGGRYIPNPATWLHQRRWE	0.0452
HMGFALLIAIERTGNTTYFVKLTLIKKGSDSDVLKDSFSVSQGDLVGTATYDSVIANRIREKTAAMWQKAT	-2.76
HMGFDTSMNKYTIDDLLKLLELGSNPSQAEIVNKITNFNTIFVDNSGVIQFLNNIQDKLLDNFK	-0.734
